Measurements from patent publication US20200255508A1 (AbbVie / Abbott, published 2020).
Like-named read-outs stand apart in the source and are kept apart here.

Columns and labels:
[1] = target: T1, human DLL4 extracellular domain (human, UniProt Q9NR61 27-529); assay: Biacore SPR;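 for koff: surface plasmon resonance on a Biacore instrument, antibodies captured on immobilized anti-human Fc, purified recombinant DLL4 extracellular domain injected as analyte, binding followed over time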
T1 construct: extracellular domain; coated on plates in the sVEGFR1 assay; also called huDLL4 ECD; Human DLL4 ECD
Protocol: (§1) The BIACORE® surface plasmon resonance assay (Biacore, Inc., Piscataway, N.J., US) determines the affinity of antibodies with kinetic measurements of on-rate and off-rate constants. Binding of DLL4 antibodies to a purified recombinant DLL4 extracellular domain is determined by surface plasmon resonance-based measurements with a Biacore® instrument (either a Biacore 2000, Biacore 3000, or Biacore T100, GE Healthcare, Piscataway, N.J. US) using running buffer HBS-EPB (10 mM HEPES [pH 7.4], 150 mM NaCl, 3 mM EDTA, 0.1 mg/ml BSA and 0.005% surfactant P20) at 25° C. For example, approximately 9000 RU of goat anti-human Fc specific polyclonal antibody (Thermo Fisher Scientific Inc., Rockford, Ill., US) diluted in 10 mM sodium acetate (pH 4.5) is directly immobilized across a CM5 research grade biosensor chip using a standard amine coupling kit according to manufacturer's instructions and procedures at 25 μg/ml. Unreacted moieties on the biosensor surface are blocked with ethanolamine. For kinetic analysis, rate equations derived from the 1:1 Langmuir binding model are fitted simultaneously to multiple antigen injections (using global fit analysis) with the use of Scrubber 2 (BioLogic Software). […] The equilibrium dissociation constant KD (M) of the reaction between antibodies and the target antigen is then calculated from the kinetic rate constants by the following formula: KD=Koff/Kₒₙ. Binding is recorded as a function of time and kinetic rate constants are calculated. In this assay, on-rates as fast as 10⁶ M⁻¹s⁻¹ and off-rates as slow as 10⁻⁶ s⁻¹ can be measured.

[2] = target: T2, mouse DLL4 extracellular domain (mouse, UniProt Q9JI71 27-532); assay: Biacore SPR;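 for koff: surface plasmon resonance on a Biacore instrument, antibodies captured on immobilized anti-human Fc, purified recombinant DLL4 extracellular domain injected as analyte, binding followed over time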
T2 construct: extracellular domain; also called muDLL4 ECD; Mouse DLL4 ECD
T2 sequence (Q9JI71 27-532): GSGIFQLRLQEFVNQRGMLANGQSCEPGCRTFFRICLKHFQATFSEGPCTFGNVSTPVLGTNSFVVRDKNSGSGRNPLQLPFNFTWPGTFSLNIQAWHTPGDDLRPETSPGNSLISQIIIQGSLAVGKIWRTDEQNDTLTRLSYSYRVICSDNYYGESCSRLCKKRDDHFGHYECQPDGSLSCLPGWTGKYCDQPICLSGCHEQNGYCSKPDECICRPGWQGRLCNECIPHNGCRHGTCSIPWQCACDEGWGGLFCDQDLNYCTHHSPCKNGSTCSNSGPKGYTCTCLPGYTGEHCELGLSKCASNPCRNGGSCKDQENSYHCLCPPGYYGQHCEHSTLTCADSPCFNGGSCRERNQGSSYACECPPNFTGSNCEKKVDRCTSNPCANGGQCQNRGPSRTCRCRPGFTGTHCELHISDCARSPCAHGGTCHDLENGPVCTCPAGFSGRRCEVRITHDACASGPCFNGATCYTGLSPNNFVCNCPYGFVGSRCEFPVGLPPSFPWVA
Protocol: as §1

human DLL4-his = target: T3, human DLL4-his (human, UniProt Q9NR61 27-529); assay: ELISA on DLL4-his
T3 construct: extracellular domain
Protocol: After the final wash, plates were incubated with 100 μl/well ELISA substrate (Sigma # T8665). The reaction was stopped after 8 minutes at 25° C. with 100 μl/well 1N HCl and the absorbance was read at 450 nm. Data were analyzed using Graphpad Prism software and EC50 values were reported.

mouse DLL4-his = target: T4, mouse DLL4-his (mouse, UniProt Q9JI71 27-532); assay: ELISA on DLL4-his
T4 construct: extracellular domain; not shown: his tag
T4 sequence (Q9JI71 27-532): as above

[3] = target: T5, human DLL4 on the cell surface (human, UniProt Q9NR61 27-685); assay: FACS on DLL4 cells
T5 construct: whole, on cells; also called HEK293-hDLL4; hDLL4-293G
Protocol: (§2) Stable cell lines overexpressing cell-surface DLL4 were harvested from tissue culture flasks, washed four times and resuspended in phosphate buffered saline (PBS) containing 1% bovine serum albumin and 1 mM CaCl₂ (FACS buffer), 1.5×10³ cells were incubated with antibodies at various concentrations in FACS buffer for 60 minutes on ice. Cells were washed twice and 50 μL of R-phycoerythrin-conjugated anti-rat IgG. […] Following an incubation on ice (4° C., 60 minutes), cells were washed three times and resuspended in FACS buffer. Fluorescence was measured using a Becton Dickinson FACSCalibur-HTS (Becton Dickinson, San Jose. Calif., US). Data were analyzed using Graphpad Prism software and EC₅₀ values were reported as the concentration of antibody to achieve 50% of maximal DLL4 antibodies binding to DLL4 expressing cells.

[4] = target: T6, mouse DLL4 on the cell surface (mouse, UniProt Q9JI71 27-686); assay: FACS on DLL4 cells
T6 construct: whole, on cells; also called HEK293-mDLL4; mDLL4-293G
T6 sequence (Q9JI71 27-686): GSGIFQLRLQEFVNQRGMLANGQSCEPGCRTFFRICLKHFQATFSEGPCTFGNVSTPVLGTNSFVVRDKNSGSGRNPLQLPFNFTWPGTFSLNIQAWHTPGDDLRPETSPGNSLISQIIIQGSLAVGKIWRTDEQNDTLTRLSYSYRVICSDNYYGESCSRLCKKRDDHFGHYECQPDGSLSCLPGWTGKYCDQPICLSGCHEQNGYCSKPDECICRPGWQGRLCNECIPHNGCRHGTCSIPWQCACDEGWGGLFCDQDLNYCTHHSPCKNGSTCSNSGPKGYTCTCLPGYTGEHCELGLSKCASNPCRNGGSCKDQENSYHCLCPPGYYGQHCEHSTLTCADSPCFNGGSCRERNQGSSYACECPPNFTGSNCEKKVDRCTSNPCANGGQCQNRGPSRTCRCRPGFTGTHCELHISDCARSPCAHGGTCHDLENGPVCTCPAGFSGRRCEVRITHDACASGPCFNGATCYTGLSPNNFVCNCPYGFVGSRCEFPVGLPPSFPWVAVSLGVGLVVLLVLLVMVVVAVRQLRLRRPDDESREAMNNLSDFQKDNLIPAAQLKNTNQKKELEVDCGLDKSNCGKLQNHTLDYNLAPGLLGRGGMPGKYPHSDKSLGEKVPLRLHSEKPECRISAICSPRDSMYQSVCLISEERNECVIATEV
Protocol: as §2

[5] = target: T5, human DLL4 on the cell surface; assay: competition FACS, competitor huNotch-1
Protocol: (§3) Notch blocking assay: Briefly, stable cell lines overexpressing cell-surface DLL4 were harvested from tissue culture flasks and re-suspended in phosphate buffered saline (PBS) containing 1% bovine serum albumin and 1 mM CaCl₂ (FACS buffer). HEK293-hDLL4 or HEK293-mDLL4 cells were dispensed into 96-well plate (v-bottom) at 1.5×10⁵ cells/well in FACS buffer. […] After washing the cells two times with FACS buffer, 50 μL of R-phycoerythrin-conjugated streptavidin (1:150 dilution in FACS buffer) (Jackson ImmunoResearch, West Grove, Pa., US, catalog no. 016-110-084) were added. Following an incubation on ice (4° C., 60 minutes), cells were washed three times and resuspended in FACS buffer. Fluorescence was measured using a Becton Dickinson FACSCalibur-HTS (Becton Dickinson, San Jose. Calif.).

[6] = target: T6, mouse DLL4 on the cell surface; assay: competition FACS, competitor huNotch-1
Protocol: as §3

[7] = target: T1, human DLL4 extracellular domain; assay: competition ELISA, competitor huNotch-1
Protocol: (§4) Plates were then washed 3 times with wash buffer (PBS, 0.05% Tween-20) and blocked with 200 μl/well blocking buffer (D-PBS, 1% BSA, 1 mM CaCl₂, 0.05% Tween-20) for 1 hour at 25° C. […] Assay plates were washed after blocking, and incubated with DLL4/antibody mixtures (100 μl/well, 1 hour at 25° C. with shaking). […] After a final wash, plates were developed using 100 μl/well substrate (TMB Sigma # T8665), and the reaction was stopped after an 8-minute incubation at 25° C. (for muDLL4 ELISA) and after 20 minute incubation at 25° C. (for huDLL4 ELISA) using 100 μl/well 1N HCl, and the absorbance was read at 450 nm.

[8] = target: T2, mouse DLL4 extracellular domain; assay: competition ELISA, competitor huNotch-1
Protocol: as §4

[9] = target: T1, human DLL4 extracellular domain; assay: Biacore SPR; remark: listed apart in the source;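 for koff: surface plasmon resonance on a Biacore instrument, antibodies captured on immobilized anti-human Fc, purified recombinant DLL4 extracellular domain injected as analyte, binding followed over time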
[10] = target: T2, mouse DLL4 extracellular domain; assay: Biacore SPR; remark: listed apart in the source;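 for koff: surface plasmon resonance on a Biacore instrument, antibodies captured on immobilized anti-human Fc, purified recombinant DLL4 extracellular domain injected as analyte, binding followed over time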
[11] = target: T5, human DLL4 on the cell surface; assay: FACS on DLL4 cells; remark: listed apart in the source
[12] = target: T6, mouse DLL4 on the cell surface; assay: FACS on DLL4 cells; remark: listed apart in the source
[13] = target: T5, human DLL4 on the cell surface; assay: cell-based or functional assay
[14] = target: T5, human DLL4 on the cell surface; assay: competition FACS, competitor huNotch-1; remark: listed apart in the source
Protocol: as §3

[15] = target: T6, mouse DLL4 on the cell surface; assay: competition FACS, competitor huNotch-1; remark: listed apart in the source
Protocol: as §3

Binder | Kd [1] | Kd [2] | EC50 (human DLL4-his) | EC50 (mouse DLL4-his) | Kd [3] | Kd [4] | IC50 [5] | IC50 [6] | IC50 [7] | IC50 [8] | EC50 [11] | EC50 [12] | Inhibition of Notch activation via huDLL4 cells, coculture (IC50, nM) [13] | IC50 [14] | IC50 [15] | other results
E9-SE2 (antibody, V domains shown, full-length human IgG1) VH: EVQLVESGGGLVQPGGSLRLSCAVSGGSISSSSYYWGWIRQAPGKGLEWIGDIYYTGSTYYNPSLKSRVTISVDTSKNSFYLQMNSLRAEDTAVYYCAREDVILRGGSDYWGQGTLVTVSS VL: SYELTQPPSVSVSPGQTASITCSGQRLGDKYASWYQQKPGQSPVLVIYEDSKRPSGIPERFSGSNSGDTATLTISGTQPMDEADYYCQAWDRDTGVFGYGTRVTVLG | 2.43 nM | 15.1 nM | 0.18 nM | 0.2 nM | 5.2 nM | 0.87 nM | 5.61 nM | 1.23 nM | 2.6 nM | 2.2 nM |  |  |  |  |  | 
E9-SE3 (antibody, V domains shown, full-length human IgG1) VH: EVQLQESGPGLVKPGETLSLTCTVSGGSISSSSYYWGWIRQAPGKGLEWIGDIYYTGSTYYNPSLKSRVTISVDTSKNQFYLKLSSVRAEDTAVYYCAREDVILRGGSDYWGQGTLVTVSS VL: SYELTQPPSVSVSPGQTASITCSGQRLGDKYASWYQQKPGQSPVLVIYEDSKRPSGIPERFSGSNSGDTATLTISGTQPMDEADYYCQAWDRDTGVFGYGTRVTVLG | 2.26 nM | 12.1 nM | 0.18 nM | 0.2 nM | 2.29 nM | 0.74 nM | 6.75 nM | 1.25 nM | 2.5 nM | 2.1 nM |  |  |  |  |  | 
E9-SE7 (antibody, V domains shown, full-length human IgG1) VH: EVQLVESGGGLVQPGGSLRLSCAVSGGSISSSSYYWGWIRQAPGKGLEWIGDIYYTGSTYYNPSLKSRVTISVDTSKNSFYLQMNSLRAEDTAVYYCAREDVILRGGSDYWGQGTLVTVSS VL: EYVLTQSPDFQSVTPKEKVTITCSGQRLGDKYASWYQQKPDQSPKLVIYEDSKRPSGVPSRFSGSNSGDDATLTINSLEAEDAATYYCQAWDRDTGVFGQGTKVEIKR | 1.69 nM | 16.2 nM | 0.17 nM | 0.17 nM | 2.28 nM | 2.24 nM | 7.81 nM | 1.94 nM | 2.4 nM | 2.4 nM |  |  |  |  |  | 
E9-SE6 (antibody, V domains shown, full-length human IgG1) VH: EVQLQESGPGLVKPGETLSLTCTVSGGSISSSSYYWGWIRQAPGKGLEWIGDIYYTGSTYYNPSLKSRVTISVDTSKNQFYLKLSSVRAEDTAVYYCAREDVILRGGSDYWGQGTLVTVSS VL: LYVLTQPPSVSVSPGQTASITCSGQRLGDKYASWYQQKPGQSPVLVIYEDSKRPSGIPERFSGSNSGDTATLTISGTQTMDEADYLCQAWDRDTGVFGGGTKVTVLG | 0.64 nM | 10 nM | 0.17 nM | 0.19 nM | 4.25 nM | 1.18 nM | 8.16 nM | 1.53 nM | 2.5 nM | 2.9 nM |  |  |  |  |  | 
E9-SE4 (antibody, V domains shown, full-length human IgG1) VH: EVQLQESGPGLVKPSETLSLTCTVSGGSISSSSYYWGWIRQPPGKGLEWIGDIYYTGSTYYNPSLKSRVTISVDTSKNQFSLKLSSVTAADTAVYYCAREDVILRGGSDYWGQGTLVTVSS VL: LYVLTQPPSVSVSPGQTASITCSGQRLGDKYASWYQQKPGQSPVLVIYEDSKRPSGIPERFSGSNSGDTATLTISGTQTMDEADYLCQAWDRDTGVFGGGTKVTVLG | 2.38 nM | 10.5 nM | 0.17 nM | 0.2 nM |  | 1.15 nM | 5.82 nM | 1.71 nM | 2.7 nM | 2.9 nM |  |  |  |  |  | 
E9.7E (antibody, V domains shown) VH: EVQLQESGPGLVKPSETLSLTCTVSGGSISSSSYYWGWIRQPPGKGLEWIGDIYYAGSTYYNPSLKDRVTISVDTSKNQFSLKLSSVTAADTAVYYCAREDMILGGGADNWGQGTLVTVSS VL: SYELTQPPSVSVSPGQTASITCSGDRLGDKYVSWYQQKPGQSPVLVIYEDSERPSGIPERFSGSNSGDTATLTISGTQAMDEADYYCQAWDSEAGVFGSGTKVT |  |  |  |  |  |  |  |  |  |  | 4.46 nM | 1.94 nM | 0.41 nM | 4 nM | 0.33 nM | Kd [9]: 0.27 nM; koff [9]: 4.12e-05 s⁻¹; kon [9]: 152000 M⁻¹ s⁻¹; Kd [10]: 2.3 nM; koff [10]: 0.000221 s⁻¹; kon [10]: 95300 M⁻¹ s⁻¹
E9-SE5 (antibody, V domains shown, full-length human IgG1) VH: EVQLQESGPGLVKPSETLSLTCTVSGGSISSSSYYWGWIRQPPGKGLEWIGDIYYTGSTYYNPSLKSRVTISVDTSKNQFSLKLSSVTAADTAVYYCAREDVILRGGSDYWGQGTLVTVSS VL: EYVLTQSPDFQSVTPKEKVTITCSGQRLGDKYASWYQQKPDQSPKLVIYEDSKRPSGVPSRFSGSNSGDDATLTINSLEAEDAATYYCQAWDRDTGVFGQGTKVEIKR | 1.57 nM | 12.8 nM | 0.16 nM | 0.19 nM | 7.81 nM | 2.9 nM | 6.38 nM | 1.76 nM | 2.6 nM | 2.4 nM |  |  |  |  |  | 
E9.10C (antibody, V domains shown) VH: EVQLQESGPGLVKPSETLSLTCTVSGGSISSGSYYWGWIRQPPGKGLEWIGDIYYTGSTYYNPSLKSRVTISVDTSKNQFSLKLSSVTAADTAVYYCARQAVMYGGGSDNWGQGTLVTVSS VL: SYELTQPPSVSVSPGQTASITCSGDSLGDKYVSWYQQKPGQSPVLVIYEDSERPSGIPERFSGSNSGDTATLTISGTQAMDEADYYCQAWDSETGVFGSGTKVT |  |  |  |  |  |  |  |  |  |  | 3.15 nM | 0.88 nM | 0.85 nM | 3.03 nM | 0.26 nM | Kd [9]: 0.38 nM; koff [9]: 4.59e-05 s⁻¹; kon [9]: 120000 M⁻¹ s⁻¹; Kd [10]: 1.6 nM; koff [10]: 0.000121 s⁻¹; kon [10]: 73700 M⁻¹ s⁻¹
E9-SE8 (antibody, V domains shown, full-length human IgG1) VH: EVQLQESGPGLVKPGETLSLTCTVSGGSISSSSYYWGWIRQAPGKGLEWIGDIYYTGSTYYNPSLKSRVTISVDTSKNQFYLKLSSVRAEDTAVYYCAREDVILRGGSDYWGQGTLVTVSS VL: EYVLTQSPDFQSVTPKEKVTITCSGQRLGDKYASWYQQKPDQSPKLVIYEDSKRPSGVPSRFSGSNSGDDATLTINSLEAEDAATYYCQAWDRDTGVFGQGTKVEIKR | 2 nM | 13 nM | 0.18 nM | 0.19 nM | 2.67 nM | 2.32 nM | 9.25 nM | 2.3 nM | 2.5 nM | 2.6 nM |  |  |  |  |  | 
E9.71(L) (antibody, human IgG1, V domains shown, Methionine in CDR-H3 of E9-71 changed to leucine) VH: EVQLQESGPGLVKPSETLSLTCTVSGGSISSSSYYWGWIRQPPGKGLEWIGDIYYTGSTYYNPSLKSRVTISVDTSKNQFSLKLSSVTAADTAVYYCARQALALGGGSDKWGQGTLVTVSS VL: SYELTQPPSVSVSPGQTASITCSGQRLGDKYASWYQQKPGQSPVLVIYEDSKRPSGIPERFSGSNSGDTATLTISGTQPMDEADYYCQAWDRDTGVFGGGTKLTVLG |  |  |  |  |  |  |  |  |  |  | 0.22 nM | 0.47 nM | 2.4 nM | 1.82 nM | 0.21 nM | 
